We go through one substance from patent US20100009923A1.

For the assay, the target named is … (MimA2) presented by H-2D^b on peptide-pulsed RMA-S cells (mouse) (UniProt P01899). Description: cell-based or functional assay.
… (MimA2) presented by H-2D^b on peptide-pulsed RMA-S cells (mouse), sequence (P01899 25-362): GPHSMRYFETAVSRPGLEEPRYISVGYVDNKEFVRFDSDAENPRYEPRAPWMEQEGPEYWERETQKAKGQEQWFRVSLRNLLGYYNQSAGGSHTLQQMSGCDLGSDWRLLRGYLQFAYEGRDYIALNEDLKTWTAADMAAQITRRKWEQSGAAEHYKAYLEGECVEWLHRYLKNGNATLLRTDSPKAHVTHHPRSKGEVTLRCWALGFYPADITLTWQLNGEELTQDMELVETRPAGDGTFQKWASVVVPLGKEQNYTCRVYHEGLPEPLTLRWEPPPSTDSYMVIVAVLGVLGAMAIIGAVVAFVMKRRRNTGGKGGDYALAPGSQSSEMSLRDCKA

Regarding “TCR of the β cell-autoreactive CD8+ T cell clone AI4 (Vα8/Vβ2)”, the peptide concentration giving half-maximal activity in the AI4 cytotoxicity assay (51Cr release, E:T 40, RMA-S targets) was 10 pM.
